From the supplement of paper PMC9732359 come the findings set out here.

± gives the uncertainty stated by the source.

The series can be described thus: protein stability index of a GFP-peptide fusion (yeast GPS) (PSI 1-4); higher = more stable; sorted into four equal gates, so the index is relative within each strain. Summed up:
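Plasmids in a pooled yeast library fused tiled 17-residue yeast protein peptides downstream of GFP and also expressed Cherry. Mid-log cultures grown without leucine were sorted into four equal gates by GFP/Cherry fluorescence ratio. Each gate's plasmids were PCR-amplified and Illumina-sequenced, and reads were matched to strains by barcodes. The protein stability index is derived by multiplying each gate's read frequency by its gate number and summing the results.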

For the sequence CEQQPSQEREFSLLVKA [SIN4], the protein stability index runs as follows: (doa10∆) 3.01 ± 0.077; (pdr5∆) 3.07 ± 0.08; (san1∆) 2.94 ± 0.054; (ubr1∆) 3.04 ± 0.045.

Sequence DSFSGAKIYPGRGTLFV [RPL24A] had a protein stability index (doa10∆) of 3.13 ± 0.065, a protein stability index (pdr5∆) of 3.08 ± 0.067, a protein stability index (san1∆) of 2.78 ± 0.06 and a protein stability index (ubr1∆) of 2.68 ± 0.052.

For the sequence LEWLENPSNTPDKDYLL [FAS1], the protein stability index was determined as 3.16 ± 0.11 (doa10∆), 3.21 ± 0.088 (pdr5∆), 3.27 ± 0.071 (san1∆) and 3.29 ± 0.11 (ubr1∆).

For SLDTLELESITESITHD [NUT1], the protein stability index by setting is: (doa10∆) 2.57 ± 0.063; (pdr5∆) 2.42 ± 0.046; (san1∆) 2.76 ± 0.059; (ubr1∆) 2.34 ± 0.035.

For EIKKVTQIVAKFPETSY [SIN4], the protein stability index is, setting by setting: (doa10∆) 2.25 ± 0.27; (pdr5∆) 3.02 ± 0.11; (ubr1∆) 2.57 ± 0.27.

DDEDEDDSDNVMSSDDE [PRE10]: the protein stability index reads like this: (doa10∆) 3.17 ± 0.094; (pdr5∆) 3.46 ± 0.12; (san1∆) 3.44 ± 0.15; (ubr1∆) 3.12 ± 0.17.

In the case of WTEKKGKNVINRERFIS [SMD2], the protein stability index reads like this: (doa10∆) 2.54 ± 0.16; (pdr5∆) 1.54 ± 0.066; (san1∆) 1.11 ± 0.19; (ubr1∆) 3.05 ± 0.087.

As for DDEDDEHNPTIVGGLYY [AAR2], the protein stability index (doa10∆) was determined as 3.22 ± 0.12, the protein stability index (pdr5∆) is 3.14 ± 0.079, the protein stability index (san1∆) was 3.17 ± 0.064 and the protein stability index (ubr1∆) turned out to be 3.4 ± 0.1.

On to RTVKNILVSVLPGTEKG [CSL4], for which the protein stability index (doa10∆) came to 1.65 ± 0.27.

KLSKILRTEYGWDSLAS [SNU114] displayed a protein stability index (doa10∆) of 3.17 ± 0.14, a protein stability index (pdr5∆) of 3.17 ± 0.2, a protein stability index (san1∆) of 3.1 ± 0.21 and a protein stability index (ubr1∆) of 3.3 ± 0.17.

The sequence MNGIQVDINRLKKGEVS [PRE3] displayed a protein stability index (doa10∆) of 2.15 ± 0.095, a protein stability index (pdr5∆) of 1.57 ± 0.063, a protein stability index (san1∆) of 2.52 ± 0.082 and a protein stability index (ubr1∆) of 1.36 ± 0.061.

As to NTGGESVVKKEDNKYAI [RGR1], the protein stability index (doa10∆) stood at 3.51 ± 0.1, the protein stability index (pdr5∆) worked out at 3.39 ± 0.1, the protein stability index (san1∆) was 3.33 ± 0.094 and the protein stability index (ubr1∆) came to 3.4 ± 0.085.

TNQKDTNDHVDKRTKID [ISW2]: the protein stability index turned out to be 2.77 ± 0.069 (doa10∆), 3.05 ± 0.07 (pdr5∆), 2.81 ± 0.059 (san1∆) and 2.72 ± 0.044 (ubr1∆).

With IVWRFISENTFPNGFKN [RPC34], the protein stability index was 1.84 ± 0.06 (doa10∆), 2.05 ± 0.042 (pdr5∆), 2.06 ± 0.077 (san1∆) and 2.33 ± 0.046 (ubr1∆).

As to ALIKFMEYHISNTDETK [FAS2], the protein stability index is 2.77 ± 0.1 (doa10∆), 2.5 ± 0.077 (pdr5∆), 2.59 ± 0.12 (san1∆) and 2.3 ± 0.055 (ubr1∆).

As to GEVLGITRFGLSKMRDS [RPO31], the protein stability index worked out at 3.56 ± 0.12 (doa10∆), 3.26 ± 0.11 (pdr5∆), 3.19 ± 0.075 (san1∆) and 3.46 ± 0.1 (ubr1∆).

Consider QFLQLDNDGFSFLMRQF [ECM29], for which the protein stability index reads like this: (doa10∆) 1.33 ± 0.042; (pdr5∆) 1.54 ± 0.061; (san1∆) 1.45 ± 0.072; (ubr1∆) 1.83 ± 0.051.

As to STAIKSLVALGIDPQDL [CDC53], the protein stability index reads like this: (doa10∆) 2.29 ± 0.077; (pdr5∆) 2.67 ± 0.066; (san1∆) 2.81 ± 0.053; (ubr1∆) 2.45 ± 0.049.

Consider HSGELMRQQSKELQQLQ [SMC1], for which the protein stability index (doa10∆) was determined as 2.89 ± 0.15, the protein stability index (pdr5∆) is 2.98 ± 0.13, the protein stability index (san1∆) is 2.9 ± 0.11 and the protein stability index (ubr1∆) was determined as 2.7 ± 0.27.

As for SVALHRHSNALVDILPP [RPT3], the protein stability index (doa10∆) was 1.63 ± 0.047, the protein stability index (pdr5∆) was found to be 2.1 ± 0.056, the protein stability index (san1∆) is 2 ± 0.07 and the protein stability index (ubr1∆) came to 1.94 ± 0.041.

Take CYEKVLESINEGNQIIV [BRR2]: the protein stability index (doa10∆) came out at 3.09 ± 0.11, the protein stability index (pdr5∆) is 2.59 ± 0.11, the protein stability index (san1∆) was determined as 2.05 ± 0.093 and the protein stability index (ubr1∆) was found to be 2.34 ± 0.1.

As for DIFAVNLEESSKLDIYT [RET1], the protein stability index is, setting by setting: (doa10∆) 2.98 ± 0.097; (pdr5∆) 2.78 ± 0.081; (san1∆) 2.72 ± 0.087; (ubr1∆) 3 ± 0.08.

For the sequence NEVKEWAVTLDTSRPDL [DSN1], the protein stability index runs as follows: (doa10∆) 2.96 ± 0.11; (pdr5∆) 3.15 ± 0.091; (san1∆) 3.02 ± 0.052; (ubr1∆) 3.15 ± 0.041.

Consider AATIGANFIFSPASGIV [RPT4], for which the protein stability index came out at 2.56 ± 0.061 (doa10∆), 2.66 ± 0.055 (pdr5∆), 1.84 ± 0.1 (san1∆) and 2.18 ± 0.083 (ubr1∆).

For DLENKFNRLKKQAHEKL [YIL149C/MLP2], the protein stability index was found to be 2.75 ± 0.11 (doa10∆), 2.71 ± 0.067 (pdr5∆), 2.3 ± 0.17 (san1∆) and 2.81 ± 0.063 (ubr1∆).

With NLKDLNNVKQMVMAGSK [RPO21], the protein stability index was determined as 1.81 ± 0.12 (doa10∆), 1.95 ± 0.12 (pdr5∆) and 1.92 ± 0.077 (ubr1∆).
